We go through 77 sequences from the supplement of paper PMC7877785.

This data set is described as follows: self-splicing fitness, log relative to wild type (ln ratio); higher = more splicing; Tetrahymena group I intron in knt gene, E. coli kanamycin selection, DiMSum; sequences stand for … in CUCUCU…GGAGGGAAAAGUUAUCAGGCAUGCACCUGGUAGCUAGUCUUUAAACCAAUAGAUUGCAUCGGUUUAAAAGGCAAGACCGUCAAAUUGCGGGAAAGGGGUCAACAGCCGUUCAGUACCAAGUCUCAGGGGAAACUUUGAGAUGGCCUUGCAAAGGGUAUGGUAAUAAGCUGACGGACAUGGUCCUAACCACGCAGCCAAGUCCUAAGUCAACAGAUCUUCUGUUGAUAUGGAUGCAGUUCACAGACUAAAUGUCGGUCGGGGAAGAUGUAUUCUUCUCAUAAGAUAUAGUCGGACCUCUCCUUAAUGGGAGCUAGCGGAUGAAGUGAUGCAACACUGGAGCCGCUGGGAACUAAUUUGUAUGCGAAAGUAUAUUGAUUAGUUUUGGAGUACUCGUGGUCG
The gist of the method: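 Colonies from six replicate transformations of E. coli BL21(DE3) were pooled and amplicon-sequenced on an Illumina HiSeq 2500. The library placed an intron with all eight P1ex-region nucleotides randomised inside the knt kanamycin-resistance gene on pET-22b(+), and cells grew overnight at 37°C or 30°C on LB agar with or without 25 μg/mL kanamycin (plus 100 μg/mL carbenicillin, 50 μM IPTG, 0.2% rhamnose). Fitness is the DiMSum error-weighted combination of wild-type-normalised replicate fold changes, kanamycin versus none.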

± gives the uncertainty stated by the source.

Consider AGCGAGCAAUAUUACGUCAA, for which the “self-splicing fitness (ln)” value (30 °C) was -2.95 ± 0.48 and the “self-splicing fitness (ln)” value (37 °C) was -0.741 ± 0.22.
On the same counts, the results for AGCGAGCAAUAUUACGUUAU are -3.81 ± 0.36 and -0.895 ± 0.16.
On the same counts, the results for AGCUAGCAAUAUUACGACGG are -1.66 ± 0.23 and -1.43 ± 0.42.
In the case of AGCUAGCAAUAUUACGACUA, the “self-splicing fitness (ln)” value reads like this: (30 °C) -0.935 ± 0.14; (37 °C) -0.86 ± 0.13.
On to AGCUAGCAAUAUUACGCAGC, for which the “self-splicing fitness (ln)” value (37 °C) was -0.17 ± 0.24.
Regarding AGCUAGCAAUAUUACGCAGG, the “self-splicing fitness (ln)” value (30 °C) is -3.49 ± 0.22 and the “self-splicing fitness (ln)” value (37 °C) was -3.93 ± 0.33.
Consider AGCUAGCAAUAUUACGCGAG, for which the “self-splicing fitness (ln)” value was -2.38 ± 0.22 (30 °C) and -3.12 ± 0.32 (37 °C).
In the case of AGCUAGCAAUAUUACGCGUC, the “self-splicing fitness (ln)” value is, setting by setting: (30 °C) -4.28 ± 0.36; (37 °C) -2.08 ± 0.23.
For AGCUAGCAAUAUUACGCUGU the same measures were -2.86 ± 0.2 and -3.07 ± 0.32.
AGCUAGCAAUAUUACGGCUC: the “self-splicing fitness (ln)” value is -3.32 ± 0.37 (30 °C) and -3.06 ± 0.43 (37 °C).
For AGCUAGCAAUAUUACGGGGU the same measures were -2.6 ± 0.16 and -2.13 ± 0.18.
For AGCUAGCAAUAUUACGGUAC the same measures were -2.2 ± 0.26 and -1.1 ± 0.24.
On to AGCUAGCAAUAUUACGUAAC, for which the “self-splicing fitness (ln)” value is -2.01 ± 0.15 (30 °C) and -0.993 ± 0.16 (37 °C).
Take AGCUAGCAAUAUUACGUCGA: the “self-splicing fitness (ln)” value (30 °C) was -2.69 ± 0.2 and the “self-splicing fitness (ln)” value (37 °C) is -1.9 ± 0.14.
AGCUAGCAAUAUUACGUCUC: the “self-splicing fitness (ln)” value was -4.51 ± 0.39 (30 °C) and -2.86 ± 0.29 (37 °C).
Take AGCUAGCAAUAUUACGUGAG: the “self-splicing fitness (ln)” value reads like this: (30 °C) -2.57 ± 0.12; (37 °C) -2.28 ± 0.16.
On the same counts, the results for AGCUAGCAAUAUUACGUGAU are -3.09 ± 0.15 and -1.79 ± 0.15.
For AGCUAGCAAUAUUACGUGCC the same measures were -2.52 ± 0.36 and -1.84 ± 0.27.
For AGCUAGCAAUAUUACGUGGU the same measures were -2.52 ± 0.17 and -2.18 ± 0.24.
For AGCUAGCAAUAUUACGUUCG, the “self-splicing fitness (ln)” value is, setting by setting: (30 °C) -2.57 ± 0.14; (37 °C) -2.41 ± 0.23.
For AGCUAGCAAUAUUACGUUCU the same measures were -1.07 ± 0.062 and -0.621 ± 0.08.
On the same counts, the results for AGCUAGCAAUAUUACGUUGU are -2.56 ± 0.17 and -2.32 ± 0.22.
For AGCUAGCAAUAUUACGUUUA the same measures were -2.69 ± 0.14 and -1.46 ± 0.098.
For AGCUAGCAAUAUUACGUUUC, the “self-splicing fitness (ln)” value was -4.92 ± 0.25 (30 °C) and -2.56 ± 0.16 (37 °C).
For AGGAAGCAAUAUUACGAACU the same measures were -0.35 ± 0.097 and 0.434 ± 0.13.
For AGGAAGCAAUAUUACGAAGA the same measures were -2.9 ± 0.34 and -1.61 ± 0.32.
On the same counts, the results for AGGAAGCAAUAUUACGAAUA are -2.74 ± 0.36 and -1.11 ± 0.27.
For the sequence AGGAAGCAAUAUUACGAGCU, the “self-splicing fitness (ln)” value (30 °C) was -0.467 ± 0.082 and the “self-splicing fitness (ln)” value (37 °C) amounted to 0.0249 ± 0.1.
For AGGAAGCAAUAUUACGAUCA the same measures were -0.344 ± 0.091 and -0.31 ± 0.09.
On the same counts, the results for AGGAAGCAAUAUUACGCAGA are -3.5 ± 0.31 and -1.33 ± 0.14.
Turning to AGGAAGCAAUAUUACGCGAC, the “self-splicing fitness (ln)” value is, setting by setting: (30 °C) -2.62 ± 0.45; (37 °C) -0.793 ± 0.31.
As to AGGAAGCAAUAUUACGCUAU, the “self-splicing fitness (ln)” value by setting is: (30 °C) -3.03 ± 0.21; (37 °C) -2.35 ± 0.2.
For the sequence AGGAAGCAAUAUUACGCUCU, the “self-splicing fitness (ln)” value (30 °C) was -2.56 ± 0.22 and the “self-splicing fitness (ln)” value (37 °C) is -1.99 ± 0.29.
AGGAAGCAAUAUUACGGAAA: the “self-splicing fitness (ln)” value reads like this: (30 °C) -2.92 ± 0.23; (37 °C) -2.26 ± 0.18.
As to AGGAAGCAAUAUUACGGACU, the “self-splicing fitness (ln)” value runs as follows: (30 °C) -0.293 ± 0.11; (37 °C) -0.668 ± 0.097.
On the same counts, the results for AGGAAGCAAUAUUACGUAUA are -1.79 ± 0.17 and -2.16 ± 0.24.
AGGAAGCAAUAUUACGUUCU: the “self-splicing fitness (ln)” value is, setting by setting: (30 °C) -3.47 ± 0.28; (37 °C) -1.59 ± 0.17.
Turning to AGGCAGCAAUAUUACGACAG, the “self-splicing fitness (ln)” value (30 °C) is -1.61 ± 0.18 and the “self-splicing fitness (ln)” value (37 °C) was -1.54 ± 0.23.
On the same counts, the results for AGGCAGCAAUAUUACGAGGU are -2.14 ± 0.15 and -2.68 ± 0.26.
On the same counts, the results for AGGCAGCAAUAUUACGAUGC are -3.17 ± 0.15 and -2.8 ± 0.18.
For AGGCAGCAAUAUUACGCCAA the same measures were -0.987 ± 0.25 and -0.179 ± 0.25.
Turning to AGGCAGCAAUAUUACGCCAG, the “self-splicing fitness (ln)” value (30 °C) was -0.444 ± 0.14 and the “self-splicing fitness (ln)” value (37 °C) was -0.82 ± 0.25.
With AGGCAGCAAUAUUACGCCUC, the “self-splicing fitness (ln)” value (30 °C) was -3.08 ± 0.33.
Consider AGGCAGCAAUAUUACGCGAA, for which the “self-splicing fitness (ln)” value is -1.54 ± 0.095 (30 °C) and -0.675 ± 0.13 (37 °C).
For AGGCAGCAAUAUUACGCGGC the same measures were -3.85 ± 0.24 and -2.39 ± 0.17.
Regarding AGGCAGCAAUAUUACGCUGU, the “self-splicing fitness (ln)” value is -3.99 ± 0.16 (30 °C) and -3.28 ± 0.2 (37 °C).
As to AGGCAGCAAUAUUACGGAGC, the “self-splicing fitness (ln)” value by setting is: (30 °C) -3.51 ± 0.14; (37 °C) -3.32 ± 0.26.
On the same counts, the results for AGGCAGCAAUAUUACGGAGU are -3.02 ± 0.22 and -2.09 ± 0.16.
On the same counts, the results for AGGCAGCAAUAUUACGGAUA are -1.85 ± 0.22 and -2.11 ± 0.22.
For AGGCAGCAAUAUUACGGCAA the same measures were -0.539 ± 0.069 and -1.11 ± 0.085.
As to AGGCAGCAAUAUUACGGCGA, the “self-splicing fitness (ln)” value was -0.378 ± 0.075 (30 °C) and -0.154 ± 0.091 (37 °C).
On the same counts, the results for AGGCAGCAAUAUUACGGGGC are -3.89 ± 0.37 and -2.07 ± 0.23.
For AGGCAGCAAUAUUACGGGGG the same measures were -3.34 ± 0.21 and -2.98 ± 0.23.
For AGGCAGCAAUAUUACGGUCU the same measures were -3.15 ± 0.24 and -2.61 ± 0.25.
Regarding AGGCAGCAAUAUUACGGUUA, the “self-splicing fitness (ln)” value runs as follows: (30 °C) -0.809 ± 0.077; (37 °C) 0.285 ± 0.08.
On the same counts, the results for AGGCAGCAAUAUUACGUAAU are -1.94 ± 0.088 and -0.867 ± 0.088.
On the same counts, the results for AGGCAGCAAUAUUACGUACU are -0.408 ± 0.079 and 0.323 ± 0.12.
As to AGGCAGCAAUAUUACGUAUU, the “self-splicing fitness (ln)” value is, setting by setting: (30 °C) -1.41 ± 0.095; (37 °C) -1.22 ± 0.12.
With AGGCAGCAAUAUUACGUCAU, the “self-splicing fitness (ln)” value by setting is: (30 °C) -1.87 ± 0.058; (37 °C) -1.1 ± 0.077.
For AGGCAGCAAUAUUACGUCGC the same measures were -2.48 ± 0.12 and -2.07 ± 0.14.
As to AGGCAGCAAUAUUACGUUAG, the “self-splicing fitness (ln)” value (30 °C) is -3.85 ± 0.26 and the “self-splicing fitness (ln)” value (37 °C) was -2.14 ± 0.16.
On to AGGGAGCAAUAUUACGAAUU, for which the “self-splicing fitness (ln)” value (37 °C) is -0.525 ± 0.18.
On to AGGGAGCAAUAUUACGAGCU, for which the “self-splicing fitness (ln)” value (30 °C) was -3.49 ± 0.29.
As for AGGGAGCAAUAUUACGAUUA, the “self-splicing fitness (ln)” value (30 °C) was -2.12 ± 0.18 and the “self-splicing fitness (ln)” value (37 °C) is -2.51 ± 0.35.
For AGGGAGCAAUAUUACGCACG the same measures were -2.17 ± 0.49 and -0.794 ± 0.39.
On the same counts, the results for AGGGAGCAAUAUUACGCGGC are -1.89 ± 0.2 and -2.05 ± 0.31.
Turning to AGGGAGCAAUAUUACGGAGC, the “self-splicing fitness (ln)” value was -2.84 ± 0.38 (30 °C) and -1.95 ± 0.48 (37 °C).
On the same counts, the results for AGGGAGCAAUAUUACGGGCG are -4.23 ± 0.32 and -2.35 ± 0.25.
For AGGGAGCAAUAUUACGGGGG the same measures were -2.67 ± 0.2 and -3.03 ± 0.37.
As to AGGGAGCAAUAUUACGGUCA, the “self-splicing fitness (ln)” value is -2.38 ± 0.18 (30 °C) and -2.08 ± 0.21 (37 °C).
Turning to AGGGAGCAAUAUUACGUACA, the “self-splicing fitness (ln)” value is, setting by setting: (30 °C) -2.14 ± 0.18; (37 °C) -2.46 ± 0.28.
For AGGGAGCAAUAUUACGUACG the same measures were -3.78 ± 0.4 and -2.2 ± 0.42.
Turning to AGGGAGCAAUAUUACGUAGG, the “self-splicing fitness (ln)” value (37 °C) was -2.14 ± 0.47.
Take AGGGAGCAAUAUUACGUAGU: the “self-splicing fitness (ln)” value (30 °C) is -3.35 ± 0.23 and the “self-splicing fitness (ln)” value (37 °C) is -2.19 ± 0.35.
In the case of AGGGAGCAAUAUUACGUAUA, the “self-splicing fitness (ln)” value (30 °C) was -3.19 ± 0.42.
With AGGGAGCAAUAUUACGUGCG, the “self-splicing fitness (ln)” value runs as follows: (30 °C) -2.99 ± 0.2; (37 °C) -2.4 ± 0.29.
On to AGGGAGCAAUAUUACGUUAG, for which the “self-splicing fitness (ln)” value reads like this: (30 °C) -3.02 ± 0.2; (37 °C) -3.66 ± 0.37.
